Experimental data as given in patent US12545899B2, “Luciferase enzymes for use with thermostable luciferins in bioluminescent assays” (Promega Corporation, priority 2018, dated 2026).
Positions count from the first letter of the chain named. Numbers in names are those of the source.

How the values were obtained:
[1] = Activity of ATG-2889 variants (positions 344/396) with CS0333; type: biochemical; conditions: substrate CS0333
Source text: (§1) Additionally, several other amino acid substitutions, including those not considered to be conservative or semi-conservative, were made to ATG-2889, as shown below in Table 2.

[2] = Kinetic analysis of ATG-2889 with CS0333 versus luciferin (FIG. 16B); type: biochemical
Method: FIG. 16B provides similar results. […] The composition was incubated for 3 mins prior to quantification.

[3] = Activity of ATG-2889 variants (positions 344/396) with D/L-luciferin; type: biochemical; conditions: substrate D/L-luciferin
Source text: as §1

[4] = E. coli lysate activity of position 244/339 variants with CS0333 (FIG. 7); type: biochemical; conditions: E. coli lysates; Detection Reagent; 0.5 mM substrate; 1 mM ATP; 3 mins
Method: FIG. 7 includes a representative graph assessing the activities of luciferase enzyme variants with amino acid substitutions at positions 244 and 339 of SEQ ID NO: 1 in the presence of 5,5-disubstituted luciferin analog substrate. Assays were prepared by combining overnight E. coli culture expressing enzymes with Detection Reagent+ATP+substrate (luciferin analog compounds CS0280, CS0333, CS0510, and CS0326), and luminescence was read at 3 mins. Reagent compositions included 50 μl lysate of the thermostable luciferase variant of Ppe variant of SEQ ID NO: 1, 0.5 mM substrate, and 1 mM ATP.

[5] = Effect of V300G, L305F, S306P on activity with CS0333 (FIG. 13); type: biochemical; conditions: 1 mM ATP; 100 nM to 1 mM substrate; Bright-Glo buffer
Method: FIG. 13 includes a representative graph of the effects of amino acid substitutions V300G, L305F, and S306P on enzyme activity with the CS0333 analog. Reagent compositions included […]+1 mM ATP+100 nM to 1 mM substrate in Bright-Glo™ buffer.

[6] = Km for ATP with saturating substrate (FIG. 18); type: biochemical; conditions: with CS0333, relative to Ppe variant with luciferin
Method: Reagent composition included 1 mM substrate, 100 fM-100 uM ATP (10-fold dilutions), and 0.1 mg/ml enzyme. […] Thus, the combination of the ATG-3674 luciferase enzyme variant with the thermostable CS0333 luciferin analog substrate will be effective in ATP detection/quantification assays.

[7] = Luminescence at 1 mM CS0333 (Table 11); type: biochemical; conditions: 1 mM substrate, 1 mM ATP
Source text: (§2) Tables 10 and 11 include representative results of kinetic analysis of the thermostable variants with D/L luciferin, CS0333, and CS0280. […] MK0135 and MK0137 have amino acid substitutions that improve thermostability relative to MK0133 and MK0134, respectively, while retaining activity on the luciferin analogs CS0333 and CS0280.

[8] = Differential scanning fluorimetry (DSF) analysis; type: physicochemical; conditions: Table 9A
In short: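 Thermal melt with 5× final Sypro Orange: ramp 1° C/min from 30 to 95° C, reading each 60 s, derivative of fluorescence plotted by temperature. Luciferase variants were in 20 mM HEPES pH 7.5, 200 mM NaCl, 1 mM EDTA; other enzymes in 50 mM HEPES pH 7.5, 100 mM NaCl, 2 mM EDTA.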

[9] = Kinetic analysis of thermostable variants with D/L-luciferin (Table 10); type: biochemical
Method: Experiments were also conducted to evaluate the activities (i.e. Vmax and Km) of the various thermostable luciferase variants of Ppe (SEQ ID NO: 1) described above.
as §2

[10] = Luminescence at 1 mM CS0280 (Table 11); type: biochemical; conditions: 1 mM substrate, 1 mM ATP
Source text: as §2

[11] = Kinetic analysis of Ppe variant, ATG-3707, ATG-4117 with D/L-luciferin; type: biochemical
Method: Kinetic tests of these luciferase enzyme variants were also conducted. […] Reagent compositions included 0.005 mg/ml luciferase enzyme variant+1 mM ATP, and 0.1 fM to 1 mM substrate in Bright-Glo™ (BG) or Detection Reagent (DR) buffers. The composition was incubated for 3 mins and read on GloMax® Multi+platform.
Table 8 below includes representative results of kinetic analysis of the thermostable luciferase variants of Ppe (SEQ ID NO: 1), ATG-3707, and ATG-4117. The Ppe variant (SEQ ID NO: 1) was tested with D/L-luciferin, and ATG-3707, and ATG-4117 were tested with CS0280 and CS0333.

[12] = Vmax and Km of Ppe variant and ATG-3707 with D/L-luciferin; type: biochemical
[13] = Luminescence at 1 mM D/L-luciferin (Table 11); type: biochemical; conditions: 1 mM substrate, 1 mM ATP
Source text: as §2

[14] = Kinetic analysis of thermostable variants with D/L-luciferin (Tables 13, 14); type: biochemical; conditions: 2 mM ATP
[15] = Activity of ATG-2671 with luciferin analogs; type: biochemical; conditions: data not shown
Method: FIG. 15 includes representative graphs of kinetic activity of the luciferase enzyme variant ATG-2671 with D/L-luciferin. […] The composition was incubated for 3 mins and read on GloMax® Multi+platform.

B1: ATG2889: SEQ ID NO: 12; H244W+T344A+I396K (protein)
chain: MADKNILYGPEPFYPLEDGTAGEQMFDALSRYAAIPGCIALTNAHTKENVLYEEFLKLSCRLAESFKKYGLKQNDTIAVCSENSLQFFLPVIASLYLGIIVAPVNDKYIERELIHSLGIVKPRIVFCSKNTFQKVLNVKSKLKSIETIIILDLNEDLGGYQCLNNFISQNSDSNLDVKKFKPYSFNRDDQVASIMFSSGTTGLPKGVMLTHKNIVARFSIAKDPTFGNAINPTSAILTVIPFHWGFGMMTTLGYFTCGFRVVLMHTFEEKLFLQSLQDYKVESTLLVPTLMAFLAKSALVEKYDLSHLKEIASGGAPLSKEIGEMVKKRFKLNFVRQGYGLTEATSAVLITPKGDAKPGSTGKIVPLHAVKVVDPTTGKILGPNEPGELYFKGPMKMKGYYNNEEATKAIIDNDGWLRSGDIAYYDNDGHFYIVDRLKSLIKYKGYQVAPAEIEGILLQHPYIVDAGVTGIPDEAAGELPAAGVVVQTGKYLNEQIVQDYVASQVSTAKWLRGGVKFLDEIPKGSTGKIDRKVLRQMLEKHTNGHHHHHHHH
[1]
  activity with CS0333: 679219
[2]; Bright-Glo Buffer
  Vmax with CS0333 lower than the Vmax for luciferin: 23.1 fold
[2]; Detection Reagent buffer
  Vmax with CS0333 lower than the Vmax for luciferin: 42.9 fold
[3]
  activity with D/L-luciferin: 5507240
[4]
  activity above background with CS0333: approximately 285 fold
[5]
  activity with CS0333 relative to Ppe variant (SEQ ID NO: 1): improved activity

B2: ATG-3674: SEQ ID NO: 25; H244W+T344A+I396K+S193A+N228D+L305F+S306P (protein)
chain: B1 chain with S193A, N228D, L305F, S306P
[6]
  Km values for ATP: equivalent to improved Km values for ATP

B3: Ppe variant: thermostable luciferase variant of Photuris pennsylvanica (Ppe) of SEQ ID NO: 1 (protein)
chain: B1 chain with W244H, V300C, A344T, K396I
[7]; BrightGlo Buffer
  Vmax (RLU) CS0333 BrightGlo Buffer: 862 RLU
[7]; Detection Reagent Buffer
  Vmax (RLU) CS0333 Detection Reagent Buffer: 724 RLU
[1]
  activity with CS0333: 178
[8]
  DSF Tm (° C.): 79 °C
[9]; BrightGlo Buffer
  Km: 0.667 µM
  Vmax (RLU): 18,332,536 RLU
[9]; Detection Reagent Buffer
  Km: 9.38 µM
  Vmax (RLU): 9,350,431 RLU
[10]; BrightGlo Buffer
  Vmax (RLU) CS0280 BrightGlo Buffer: 3,689 RLU
[10]; Detection Reagent Buffer
  Vmax (RLU) CS0280 Detection Reagent Buffer: 394 RLU
[3]
  activity with D/L-luciferin: 7118320
[4]
  activity above background with CS0333: below background (inhibited)
[11]; BrightGlo
  Km: 0.466 µM
  Vmax (RLU): 23,226,184 RLU
[11]; Detection Reagent
  Km: 11 µM
  Vmax (RLU): 12,592,733 RLU
[12]; BrightGlo Buffer
  Km: 0.315 µM
  Vmax (RLU): 23,319,814 RLU
[12]; CellTiterGlo buffer
  Km: 1060 µM
  Vmax (RLU): 5,771,822 RLU
[12]; Detection Reagent Buffer
  Km: 10.8 µM
  Vmax (RLU): 10,017,520 RLU
[13]; BrightGlo Buffer
  Vmax (RLU) D/L-luciferin BrightGlo Buffer: 30,177,800 RLU
[13]; Detection Reagent Buffer
  Vmax (RLU) D/L-luciferin Detection Reagent Buffer: 17,201,600 RLU
[14]; BrightGlo Buffer
  Km: 1.03 µM
  Vmax (RLU): 14,958,892 RLU
[14]; Detection Reagent Buffer
  Km: 28.3 µM
  Vmax (RLU): 5,686,042 RLU

B4: ATG-2671: luciferase enzyme variant ATG-2671 (G245A+L285I+G315A) (protein)
chain: B1 chain with W244H, G245A, L285I, V300C, G315A, A344T, K396I
[15]
  activity with luciferin analogs: not active
